Test results as given in US20220251233A1 (VERSEAU THERAPEUTICS, published 2022).
Positions count from the first letter of the chain named.

T1: Human CD53-CHO (full-length human CD53 over-expressed on CHO-K1 cells) (human, UniProt P19397 1-219)
T1 construct: Tetraspanin cell-surface antigen
T1 sequence: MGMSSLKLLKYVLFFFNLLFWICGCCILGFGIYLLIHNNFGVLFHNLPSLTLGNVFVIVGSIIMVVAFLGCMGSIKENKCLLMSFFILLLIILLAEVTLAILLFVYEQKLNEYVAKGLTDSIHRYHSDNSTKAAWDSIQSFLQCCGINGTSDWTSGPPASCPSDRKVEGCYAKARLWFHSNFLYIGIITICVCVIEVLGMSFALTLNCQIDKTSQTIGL

B1: 10B08 (antibody, V domains shown)
VH: QLQQSGTELVRPGASVKLSCTSSGFNIKDDFMHWVKQRPEQGLEWIGWIDPENGATAYASKFQGKATITADTSSNTAYLQLSSLTSEDTAVYYCTTFGDYYGGRKDYWGQGTTLTVSS
VL: DIVMTQAAFSNPVTLGTSASISCSSSKSLLHSNGITYLYWYLQRPGQSPQLLIYRMSNLASGVPDRFSGSGSGTDFTLGISRVEAEDVGVYYCAQMLERPRTFGGGTKLEIK
notes: Murine anti-human CD53 mAb purified from subcloned hybridoma; detected with anti-mouse IgG
B2: 4K13 (antibody, V domains shown)
VH: EVQLQQSVAELVRPGASVKLSCTASGLNIKNTYMNWVKQRPEQGLEWIGRIDPANGYTKYAPKFQGKTTITAATSSNTAFLQLSSLTSGDTAIYYCTTAVVATGDYWGQGTTLTVSS
VL: B1 VL with S24R, N33D, Y41F, G79R, R99F, R101F, G105T
notes: as for B1
B3: 4J16 (antibody, V domains shown)
VH: EVQLQQSGAELVRPGASVRLSCTASGFNIKDDFLHWVNQRPEQGLEWIGRIDPANGNTKYAPKFRDRATITADTSSNTAYLQLSSLTSEDTAVYYCVRVYGDYWGQGTTLTVSS
VL: B1 VL with S24R, R44K, R55Q, G69S, G79R, M96N, R99L, R101L, G105A, I111L
notes: as for B1
B4: 4G15 (antibody, V domains shown)
VH: EVQLQQSGAELVRPGASVKLSCTTSGFNIKDDFMHWVKQRPEQGLEWIGWIDPENGNTQYASKFQGKATITADTSSNTAYLQLSSLTSEDTAVYYCTSYYEETMDYWGQGTSVTVSS
VL: B1 VL with G79R
notes: as for B1
B5: 4L19 (antibody, V domains shown)
VH: QVQLQQSGAELMKPGASVKLSCKATGYTFTGYWIEWVKQRPGHGLEWIGEISSGGYNTNYNKKFKGKATFTVDTSSNTAYMQLSSLTTEDSAIYYCTRDSNDYYFDYWGQGTTLTVSS
VL: DVVMTQTPLTLSVTIGQPASISCKSSQSLLHRNGKTHLNWLLQRPGQSPKLLIYLVSKLESGVPDRFSGSGSGTDFTLRISRVEAEDLGVYYCLQVTHFPYTFGSGTKLEIK
notes: as for B1
B6: 5G03 (antibody, V domains shown)
VH: EVQLQQSGAELVRPGASVKLSCTASGFNIKDDFMHWVRQRPDQGLEYIGRFDPAIGNAKYAPKFQDKATLTADTSSNTAYLHLSSLTSEDTAVYYCAIFYAYWGQGTLVTVSA
VL: DVVMTQTPLSLPVSLGDQASISCRSSQSLVHSNRNTYLHWYLQKPGQSPKLLIYKVSNRFSGVPDRFSGSGSGTDFTLKISRVEAEDLGVYFCSQSTHVPFTFGSGTKLEIK
notes: as for B1
B7: 9J08 (antibody, V domains shown)
VH: QVQLQQPGAELVKPGASVKLSCKASGYTFTSCWMHWVKQRPGQGLEWIGMIHPNGYSSNYNGKFKNKATLTIDNSSGTAYMQLSGLTSEDSAVYYCARDDYAETMDYWGQGTSVTVSS
VL: DVVMTQTPLSLSVTIGQPASISCKSSQSLLYSDGKTYLNWLQQRPGQSPKRLMYQVSKLDPGIPDRFSGSGSETDFTLRISRVEAEDLGVYYCLQGTYYPWTFGGGTKLEIK
notes: as for B1
B8: 2M05 (antibody, V domains shown)
VH: EVQLQQSVAELVRPGASVKLSCTTSGFNIKDTYMHWVKQRPEQGLEWIGRIDPANGHTKYAPKFQDKATIAADTSSNTAYLQLSSLTSEDTAIYYCACGWDAAFAFWGQGTLVTVSA
VL: DIVMTQAAPSVPVTPGESVSISCRSGKSLLHSNGDTYLYWFLQRPGQSPQLLIYRMSNLASGVPDRFSGSGSGTAFTLRISRVEAEDVGIYYCLQHLEFPLTFGAGTKLELK
notes: as for B1
B9: 10H16 (antibody, V domains shown)
VH: EVQLQQSGAELVRPGASVKLSCTVSGFNIKDDFMNWVRQRPEQGLEWIGRIDPENGNTKYAPKFQDKATITADTSSNTAHLHLSSLTSEDTAVYFCARWIPPYWGQGTLVTVSA
VL: DIVMTQAAPSVHVTPGESASISCRSSKSLLHSNGDTYLYWFLQRPGQSPQLLIYRMSNLASGAPDRFSGSGSGTAFTLRISRVEAEDVGVYYCMQLLEYPYTFGGGTKLEIK
notes: as for B1
B10: 3G02 (antibody, V domains shown)
VH: EVQLQQSVAELVRPGASVKLSCTASGFNIKNTYMHWVKQRPEQGLEWIGRIDPAIGYTEYAPKFQGKATITADTSSNTAWLQLSSLTSEDTAIYYCAGGGPYYAMDYWGRGTSVTVSS
VL: B8 VL with V11I, G26S, L51V, D65A, I90V, L94M, F99Y, L101F
notes: as for B1
B11: 4C22 (antibody, V domains shown)
VH: B9 VH with V24A, R38K, E54A, N57H, H80F
VL: B9 VL with H12P, A63V
notes: as for B1
B12: 5K16 (antibody, V domains shown)
VH: EVQLQQSVAELVRPGASVKLSCTASGFNIKNTYMYWVKQRPEQGLEWIGRIDPANGHTKCAPKFQGKATITADTSSNTAYLQLSSLTSEDSAIFYCARGEDYAMDYWGQGTSVTVSS
VL: B9 VL with A7S, H12P, A19V, L51V, A63V, Y101F, G105S
notes: as for B1

target: T1, Human CD53-CHO (full-length human CD53 …); assay: flow cytometry on CD53-CHO cells, anti-mouse IgG AF647 gMFI, 4-parameter fit
Experimental: Binding of anti-human CD53 antibodies was determined by flow cytometry for their ability to bind human CD53-CHO cells compared to parental CHO-K1 cells. All assay steps were performed in FACS buffer (phosphate buffered saline pH 7.4 supplemented with 2% fetal bovine serum). Twenty thousand cells were seeded in 384-well plates and washed twice with ice cold buffer. Cells were incubated with purified antibodies titrated 3-fold from 200 nM to 0.09 nM at 4° C. for 1 hour with gentle agitation, then washed twice with FACS buffer and incubated with anti-mouse IgG Alexa Fluor® 647 and incubated at 4° C. for 40 minutes. Cells were washed twice and resuspended in FACS buffer. Analysis was preformed on the IntelliCyt® iQue Screener and gMFI values for Alexa Fluor® 647 were generated. EC50 values were determined in GraphPad Prism8. Concentration was transformed from nM to Log 10 nM and curves were fit with a nonlinear regression of log(agonist) vs. response−Variable slope (four parameters) or Y=Bottom+(Top−Bottom)/(1+10\hat{ }((LogEC50−X)*HillSlope)). EC50 values for all anti-human CD53 antibodies can be found in Table 6, and representative binding curves can be found in FIG. 7. Binding to CD53-CHO is represented by closed symbols and binding to parental CHO-K1 cells is represented by open symbols.

| EC50 | Binder |
| --- | --- |
| 3.1 nM | B1 |
| ~1 nM | B2 |
| 1.6 nM | B3 |
| 3.8 nM | B4 |
| 4.3 nM | B5 |
| 9.1 nM | B6 |
| 2.7 nM | B7 |
| 4.6 nM | B8 |
| ~8 nM | B9 |
| ~7 nM | B10 |
| ~7 nM | B11 |
| 5.6 nM | B12 |
